The source of these data is US20160145328A1 (published 2016).

This assay addresses T1, protein A (UniProt P38507 37-477).
T1 construct: also called Protein A superantigen
The assay can be described thus: Heat/Cool phage ELISA: phage-displayed scFv, 80 C 10 min then 4 C 10 min, captured on coated protein A; signal as % of untreated sample. As for the experimental part:
The aggregation-resistance of clones was analyzed by measuring retention of signal after heat incubation in a phage ELISA format (McCafferty et al., 1990; Jespers et al., 2004). Wells of a Nunc Maxisorp Immuno-plate were coated overnight with protein A at a concentration of about 5 μg/ml in phosphate-buffered saline (PBS). The plate was washed once with PBS and blocked with about 4% (w/v) milk powder diluted in PBS (MPBS). Single colonies were picked from agar plates and grown overnight in 2×TY medium (containing about 16 g/L tryptone; about 10 g/L yeast extract; about 5 g/L NaCl, pH 7.0) supplemented with about 15 μg/ml tetracycline shaking at about 30° C. Cells were removed by centrifugation and phages were biotinylated directly in the culture supernatant by adding biotin-PEO₄-N-hydroxysuccinimide (Pierce; about 50 μM final concentration). For heat selection, supernatant was first incubated at about 80° C. for about 10 min and then at about 4° C. for about 10 min. Supernatant was added to the blocked ELISA wells. After three washes with PBS, bound phage particles were detected using an Extravidin-HRP conjugate (Sigma) and 3,3′,5,5′-tetramethylbenzidine (TMB) substrate. Absorbance was calculated by subtracting measurements at 450 and 650 nm.
The DP47-CDR1 mutants described above were paired with a common single variable light chain (VL; SEQ ID NO: 3) via a linker (SEQ ID NO: 4) in a scFv format (see the Materials and Methods section for full experimental details). […] Correctly folded scFv were captured by protein A ELISA and the absorbance signal of the treated sample was calculated as a percentage of the untreated sample.
On the technique in general: In an ELISA, binding on a coated surface is turned into a signal by an enzyme label.

B1: scFv DP47 VH A33D - linker - common VL (scFv, name in Kabat numbering)
scFv: QVQLLESGGGLVQPGGSLRLSCAASGFTFSSYDMSWVRQAPGKGLEWVSAISGSGGSTYYADSVKGRFTISRDNSKNTLYLQMNSLRAEDTAVYYCAKSYGAFDYWGQGTLVTVSSGGGGSGGGGSGGGGSTDIQMTQSPSSLSASVGDRVTITCRASQSISSYLNWYQQKPGKAPKLLIYAYSDLQSGVPSGFSGSGSGTDFTLTISSLQPEDFATYYCQQLMTHPTTFGQGTKVEIKR
notes: also called A33D (scFv)
Turning to B1, the “Retained binding to protein A” value was 22%.

B2: scFv DP47 VH Y32E - linker - common VL (scFv)
scFv: QVQLLESGGGLVQPGGSLRLSCAASGFTFSSEAMSWVRQAPGKGLEWVSAISGSGGSTYYADSVKGRFTISRDNSKNTLYLQMNSLRAEDTAVYYCAKSYGAFDYWGQGTLVTVSSGGGGSGGGGSGGGGSTDIQMTQSPSSLSASVGDRVTITCRASQSISSYLNWYQQKPGKAPKLLIYAYSDLQSGVPSGFSGSGSGTDFTLTISSLQPEDFATYYCQQLMTHPTTFGQGTKVEIKR
notes: also called Y32E (scFv)
On to B2, for which the “Retained binding to protein A” value was found to be 27%.

B3: scFv DP47 VH S31D - linker - common VL (scFv)
scFv: QVQLLESGGGLVQPGGSLRLSCAASGFTFSDYAMSWVRQAPGKGLEWVSAISGSGGSTYYADSVKGRFTISRDNSKNTLYLQMNSLRAEDTAVYYCAKSYGAFDYWGQGTLVTVSSGGGGSGGGGSGGGGSTDIQMTQSPSSLSASVGDRVTITCRASQSISSYLNWYQQKPGKAPKLLIYAYSDLQSGVPSGFSGSGSGTDFTLTISSLQPEDFATYYCQQLMTHPTTFGQGTKVEIKR
notes: also called S31D (scFv)
For the molecule B3, the “Retained binding to protein A” value was found to be 29%.

B4: scFv DP47 VH T28R - linker - common VL (scFv, name in Kabat numbering)
scFv: QVQLLESGGGLVQPGGSLRLSCAASGFRFSSYAMSWVRQAPGKGLEWVSAISGSGGSTYYADSVKGRFTISRDNSKNTLYLQMNSLRAEDTAVYYCAKSYGAFDYWGQGTLVTVSSGGGGSGGGGSGGGGSTDIQMTQSPSSLSASVGDRVTITCRASQSISSYLNWYQQKPGKAPKLLIYAYSDLQSGVPSGFSGSGSGTDFTLTISSLQPEDFATYYCQQLMTHPTTFGQGTKVEIKR
notes: also called T28R (scFv)
Consider B4, for which the “Retained binding to protein A” value is 4%.

B5: scFv DP47 VH S35G - linker - common VL (scFv, name in Kabat numbering)
scFv: QVQLLESGGGLVQPGGSLRLSCAASGFTFSSYAMGWVRQAPGKGLEWVSAISGSGGSTYYADSVKGRFTISRDNSKNTLYLQMNSLRAEDTAVYYCAKSYGAFDYWGQGTLVTVSSGGGGSGGGGSGGGGSTDIQMTQSPSSLSASVGDRVTITCRASQSISSYLNWYQQKPGKAPKLLIYAYSDLQSGVPSGFSGSGSGTDFTLTISSLQPEDFATYYCQQLMTHPTTFGQGTKVEIKR
notes: also called S35G (scFv)
In the case of B5, the “Retained binding to protein A” value was 5%.
